Measured values as given in publication PMC7448383.

B1: 100-base RNA (ssRNA)
RNA: AGCCUGAAUCUCAGAUUCCACCACAAAGACCUCAGCGGGAUCAAAGAGUGCGAGAACAACGAAUAAAUAUUCCUCCCCAAAGGGGACCCAGACCAAUCCG

What was measured:
Assay in all cases: EMSA
[1] = target: G3BP1 WT (human, UniProt Q13283 1-466)
[2] = target: G3BP1 S149A (human, UniProt Q13283 1-466, S149A)
[3] = target: G3BP1 dIDR3 (dRGG) (human, UniProt Q13283 1-410, del411-466)
[4] = target: G3BP1 dRBD (human, UniProt Q13283 1-334, del335-466)
G3BP1 dRBD, sequence (Q13283 1-334, stated change not applied): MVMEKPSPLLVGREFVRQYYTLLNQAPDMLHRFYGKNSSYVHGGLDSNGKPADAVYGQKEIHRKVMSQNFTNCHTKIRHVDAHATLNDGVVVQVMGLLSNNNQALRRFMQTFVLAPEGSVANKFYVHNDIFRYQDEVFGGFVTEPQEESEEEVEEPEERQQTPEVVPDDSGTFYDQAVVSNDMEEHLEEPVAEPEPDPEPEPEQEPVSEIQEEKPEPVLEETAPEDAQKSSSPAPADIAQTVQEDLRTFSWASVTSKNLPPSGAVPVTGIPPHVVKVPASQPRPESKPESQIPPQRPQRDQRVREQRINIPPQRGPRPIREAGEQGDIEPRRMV

G3BP1 dIDR3 (dRGG), sequence (Q13283 1-410, stated change not applied): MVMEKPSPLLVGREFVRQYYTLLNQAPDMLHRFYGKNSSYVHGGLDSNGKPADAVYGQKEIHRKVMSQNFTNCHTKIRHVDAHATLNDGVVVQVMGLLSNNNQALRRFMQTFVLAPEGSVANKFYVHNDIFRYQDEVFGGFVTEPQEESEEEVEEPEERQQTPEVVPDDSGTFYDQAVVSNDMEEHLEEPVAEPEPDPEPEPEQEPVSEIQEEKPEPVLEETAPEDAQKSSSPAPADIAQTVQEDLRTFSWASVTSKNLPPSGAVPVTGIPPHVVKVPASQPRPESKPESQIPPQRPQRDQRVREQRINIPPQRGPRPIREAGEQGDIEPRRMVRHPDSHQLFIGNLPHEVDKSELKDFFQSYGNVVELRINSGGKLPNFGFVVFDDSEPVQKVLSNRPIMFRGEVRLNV
G3BP1 S149A, sequence (Q13283 whole entry S149A): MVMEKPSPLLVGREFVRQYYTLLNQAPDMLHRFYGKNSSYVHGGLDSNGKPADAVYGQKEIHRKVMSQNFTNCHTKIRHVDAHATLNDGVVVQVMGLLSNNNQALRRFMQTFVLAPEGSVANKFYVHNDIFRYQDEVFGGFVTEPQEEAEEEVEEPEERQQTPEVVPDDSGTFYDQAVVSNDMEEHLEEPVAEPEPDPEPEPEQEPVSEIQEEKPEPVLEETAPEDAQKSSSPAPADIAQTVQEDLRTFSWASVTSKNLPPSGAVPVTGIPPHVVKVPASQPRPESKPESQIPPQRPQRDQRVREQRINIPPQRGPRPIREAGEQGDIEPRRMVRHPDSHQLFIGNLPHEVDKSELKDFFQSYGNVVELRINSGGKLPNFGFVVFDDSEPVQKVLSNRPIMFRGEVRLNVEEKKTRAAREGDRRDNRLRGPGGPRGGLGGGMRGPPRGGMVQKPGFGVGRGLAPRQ
G3BP1 WT, sequence (Q13283 whole entry): as the sequence (Q13283 whole entry S149A) above, with A149S counted along it

Row | Binder | binding result [1] | binding result [2] | binding result [3] | binding result [4]
1 | AGAUUCCACCACAAAGACCC (ssRNA) [20-base RNA] | binds | binds |  | 
2 | B1 |  |  | no binding | no binding
